Key:
[1] = target: SARS-CoV-2 RBD蛋白 (ELISA coating antigen) (SARS-CoV-2, UniProt P0DTC2 319-541); test: ELISA, plate coated with SARS-CoV-2 RBD, antibody 1 μg/mL, goat anti-human IgG-HRP
[2] = target: SARS-CoV-2 S蛋白 (刺突糖蛋白) (SARS-CoV-2, UniProt P0DTC2 14-1273); test: cell-based or functional assay
[3] = target: SARS-CoV-2 S-RBD蛋白 (Acrobiosystems, cat.# SPD-C52H3) (SARS-CoV-2, UniProt P0DTC2 319-537); test: SPR (Biacore 8K), antibody captured on Protein A chip, S-RBD 50-0.78125 nM, 1:1 Langmuir fit

Row | Binder | ELISA值 (OD450) [1] [OD450] | 假病毒的抑制率IC50 (Luciferase RLU, Spike假病毒, 293T-ACE2细胞) [2] [µg/mL] | Kd [3] [nM]
1 | R157 (antibody, V domains shown) VH: QVQLVQSGAEVKKPGSSVKVSCKASGGTFSSYAINWVRQAPGQGLEWMGGIIPILGIANYAQKFQGRVTITADKSTSTAYMELSSLRSEDTAVYYCAREQGYSGSGANYYFDYWGQGTLVTVSS VL: QSVLTQPPSVSGAPGQRVTVSCTGSSSNIGAGYDVHWYQQLPGTAPKLLIYGNTNRPSGVPDRFSGSKSGTSASLAITGLQAEDEADYYCQSYDSSLSDVVFGGGTQLTVL | 1.14 | – | –
2 | R14 (antibody, V domains shown) VH: QVQLVQSGAEVKKPGSSVKVSCKASGGTFSSYTISWVRQAPGQGLEWMGRIIPILGIANYAQKFQGRVTITADKSTSTAYMELSSLRSEDTAVYYCAREIGYSSSGSNYYMDVWGKGTTVTVSS VL: QSVLTQPPSVSGAPGQRVTISCTGSSSNIGAGYDVHWYQQLPGTAPKLLIYGNSNRPSGVPDRFSGSKSGTSASLAITGLQAEDEADYYCQSYDSSLSGVVFGGGTKLTVL | 1.01 | – | –
3 | R44 (antibody, V domains shown) VH: QVQLVQSGGGLVQPGGSLRLSCAASEITVSSNYMSWVRQAPGKGLEWVSVLYSGGSTDYADSVKGRFTISRDNSKNTLYLQMNSLRAEDTAVYYCAREVYGMDVWGQGTTVTVSS VL: DIVLTQTPSSLSASVGDRVTITCRASQGISSYLAWYQQKPGKAPKLLIYAASTLQSGVPSRFSGSGSGTDFTLTISSLQPEDFATYYCQELSTYPVTFGQGTKVEIK | 1.17 | 1.6 | 0.205
4 | R29 (antibody, V domains shown) VH: EVQLLESGGGLVQPGRSLRLSCAASGFTFDDYGIHWVRQAQGKGLEWVSGISWNSGTIGYADSVKGRFTISRDNAKNSLYLQMNSLRAEDTALYYCAKDRGGKLRWYEREEYYFDYWGQGTLVTVSS VL: SYVLTQPPSVSVAPGQTAKITCGGNDIGRKSVYWYQQKPGQAPILVIYYSSDRPSGIPDRFSGSNSGNTATLTIGRVEAGDEADYYCQVWDSTSDHVIFGGGTKLTVL | 1.06 | – | –

Reference: patent CN113956352A (FUJIAN MEDICAL UNIV UNION HOSPITAL, dated 2022)
